Source: US20230416365A1 (Hoffmann-La Roche, published 2023)
Positions count from the first letter of the chain named.

Assays:
[1] = biological target: T1, N(A2B2)A-avi-His (biotinylated at the avi tag); assay: SPR, ProteOn, antigen on NLC chip, bispecific IgG as analyte
T1 construct: also called biotinylated N(A2B2)A-avi-His
T1 chain: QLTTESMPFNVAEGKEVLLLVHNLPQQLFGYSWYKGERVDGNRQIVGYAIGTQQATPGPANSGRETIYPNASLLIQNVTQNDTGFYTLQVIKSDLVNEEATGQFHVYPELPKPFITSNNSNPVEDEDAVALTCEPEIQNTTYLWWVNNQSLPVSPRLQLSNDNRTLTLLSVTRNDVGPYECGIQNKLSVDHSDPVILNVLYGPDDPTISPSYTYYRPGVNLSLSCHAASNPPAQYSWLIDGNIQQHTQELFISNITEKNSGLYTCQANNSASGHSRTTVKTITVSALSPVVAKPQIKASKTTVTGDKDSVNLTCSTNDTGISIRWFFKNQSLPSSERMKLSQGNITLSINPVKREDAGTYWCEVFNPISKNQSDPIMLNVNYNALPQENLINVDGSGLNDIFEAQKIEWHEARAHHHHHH

[2] = biological target: T2, biotinylated huCD28-Fc (dimeric CD28-Fc construct with a monovalent biotinylated avi-tag) (human, UniProt P10747 19-152, biotinylated at the C-terminal avi tag); assay: SPR, ProteOn XPR36, huCD28-Fc immobilised, bispecific as analyte
T2 construct: not shown: hum IgG1 Fc fragment with hole and PG-LALA mutations; hum IgG1 Fc fragment with knob and PG-LALA mutations

[3] = biological target: T1, N(A2B2)A-avi-His; assay: SPR, ProteOn, antigen on NLC chip, purified Fab as analyte
[4] = biological target: T1, N(A2B2)A-avi-His; assay: SPR off-rate, ProteOn, antigen on NLC chip, Fab in bacterial supernatant
[5] = biological target: T3, Hu N(A2-B2)A-avi-His (human, biotinylated at the avi tag (Example 2.2)); assay: SPR, Biacore T200, antigen amine-coupled on CM5, Fab as analyte
T3 construct: also called hu N(A2-B2)A-avi-His B; CEACAM5-based antigen
T3 chain: T1 chain

[6] = biological target: T4, human CD28 on CHO cells (parental cell line CHO-k1 ATCC #CCL-61, modified to stably overexpress human CD28) (human, UniProt P10747 19-220); assay: flow cytometry on CHO cells stably expressing human CD28, monovalent one-armed IgG from supernatant, MFI (PE)
T4 construct: also called hu CD28; CHO-hCD28

B1: bispecific CEA (P005.103-combo1)-CD28 (SA Variant 15) 1+1 IgG (bispecific antibody)
heavy 1: EIVLTQSPATLSLSPGERATLSCRASSSVTYIHWYQQKPGQAPRSWIYATSNLASGIPARFSGSGSGTDFTLTISSLEPEDFAVYYCQHWSSISPTFGQGTKLEIKSSASTKGPSVFPLAPSSKSTSGGTAALGCLVKDYFPEPVTVSWNSGALTSGVHTFPAVLQSSGLYSLSSVVTVPSSSLGTQTYICNVNHKPSNTKVDKKVEPKSCDKTHTCPPCPAPEAAGGPSVFLFPPKPKDTLMISRTPEVTCVVVDVSHEDPEVKFNWYVDGVEVHNAKTKPREEQYNSTYRVVSVLTVLHQDWLNGKEYKCKVSNKALGAPIEKTISKAKGQPREPQVCTLPPSRDELTKNQVSLSCAVKGFYPSDIAVEWESNGQPENNYKTTPPVLDSDGSFFLVSKLTVDKSRWQQGNVFSCSVMHEALHNHYTQKSLSLSP
light 1: EVQLLESGGGLVQPGGSLRLSCAASGFTFTDYYMNWVRQAPGKGLEWLGFIGNKANAYTTEYSASVKGRFTISRDKSKNTLYLQMNSLRAEDTATYYCTRDRGIRFSFDYWGQGTTVTVSSASVAAPSVFIFPPSDEQLKSGTASVVCLLNNFYPREAKVQWKVDNALQSGNSQESVTEQDSKDSTYSLSSTLTLSKADYEKHKVYACEVTHQGLSSPVTKSFNRGEC
heavy 2: not shown
light 2: not shown
notes: knob-into-hole, crossmab, PG-LALA
- Kd [1]: 0.27 nM
- koff [1]: 3.42e-05 s⁻¹
- kon [1]: 126000 M⁻¹ s⁻¹

B2: CEA (A5H1EL1D)-CD28 (SA_Variant 29) 1+1 format (Molecule 11D) (bispecific antibody, human IgG1, kappa, L234A L235A)
heavy 1: B1 heavy 1 with I93K, S94P
light 1: B1 light 1 with I104L, S107Y
heavy 2: not shown
light 2: not shown
notes: huIgG1 PG-LALA CrossFab; also called P1AE4776
- Kd [2]: 1.2 nM
- koff [2]: 0.000324 s⁻¹
- kon [2]: 271000 M⁻¹ s⁻¹

B3: bispecific CEA (P006.038)-CD28 (SA Variant 15) 1+1 IgG (bispecific antibody)
heavy 1: B1 heavy 1 with I93V, S94P
light 1: B1 light 1 with S107G
heavy 2: not shown
light 2: not shown
notes: as for B1
- Kd [1]: 0.22 nM
- koff [1]: 5.87e-05 s⁻¹
- kon [1]: 267000 M⁻¹ s⁻¹

B4: CEA (A5H1EL1D)-CD28 (SA_Variant 8) 1+1 format (Molecule 11B) (bispecific antibody, human IgG1, kappa, L234A L235A)
heavy 1: B1 heavy 1 with I93K, S94P
light 1: B1 light 1 with I104L, S107Y
heavy 2: not shown
light 2: not shown
notes: huIgG1 PG-LALA CrossFab; also called P1AE4774
- Kd [2]: 58 nM
- koff [2]: 0.0098 s⁻¹
- kon [2]: 169000 M⁻¹ s⁻¹

B5: bispecific CEA (P006.038-combo1)-CD28 (SA Variant 15) 1+1 IgG (bispecific antibody)
heavy 1: B1 heavy 1 with I93V, S94P
light 1: B1 light 1 with T28Y, Y33A, F50V, G52S, S107G
heavy 2: not shown
light 2: not shown
notes: as for B1
- Kd [1]: 4.48 nM
- koff [1]: 0.000799 s⁻¹
- kon [1]: 178000 M⁻¹ s⁻¹

B6: bispecific CEA (P005.103-combo2)-CD28 (SA Variant 15) 1+1 IgG (bispecific antibody)
heavy 1: B1 heavy 1
light 1: B1 light 1 with T28Y, F50V, G52S
heavy 2: not shown
light 2: not shown
notes: as for B1
- Kd [1]: 0.09 nM
- koff [1]: 1.05e-05 s⁻¹
- kon [1]: 123000 M⁻¹ s⁻¹

B7: bispecific CEA (P006.038-combo2)-CD28 (SA Variant 15) 1+1 IgG (bispecific antibody)
heavy 1: B1 heavy 1 with I93V, S94P
light 1: B1 light 1 with T30S, Y33E, G52S, S107G
heavy 2: not shown
light 2: not shown
notes: as for B1
- Kd [1]: 3.66 nM
- koff [1]: 0.000698 s⁻¹
- kon [1]: 191000 M⁻¹ s⁻¹

B8: A5H1EL1D Fab (phage display format, parental clone) (Fab, V domains shown)
VH: EVQLLESGGGLVQPGGSLRLSCAASGFTFTDYYMNWVRQAPGKGLEWLGFIGNKANAYTTEYSASVKGRFTISRDKSKNTLYLQMNSLRAEDTATYYCTRDRGLRFYFDYWGQGTTVTVSS
VL: EIVLTQSPATLSLSPGERATLSCRASSSVTYIHWYQQKPGQAPRSWIYATSNLASGIPARFSGSGSGTDFTLTISSLEPEDFAVYYCQHWSSKPPTFGQGTKLEIK
notes: Fab from E. coli (bacterial supernatant or IMAC-purified), Flag tag
- Kd [3]: 2.3 nM
- koff [3]: 0.000248 s⁻¹
- kon [3]: 108000 M⁻¹ s⁻¹
- koff [4]: 0.00031 s⁻¹

B9: Fab derived from P1AE2166 (Fab, V domains shown)
VH: B8 VH with A57G
VL: B8 VL with Q41S, A42S, R44K
notes: Fab; also called P1AE4137
- Kd [5]: 11.3 nM

B10: Fab derived from P1AE2181 (Fab, V domains shown)
VH: B8 VH with L48V, A57G, T95V, T99A
VL: B8 VL with Q41S, A42S, R44K
notes: Fab; also called P1AE4142
- Kd [5]: 2.64 nM

B11: Fab derived from P1AE2167 (Fab, V domains shown)
VH: B8 VH with A57G
VL: B8 VL
notes: Fab; also called P1AE4138
- Kd [5]: 1.47 nM

B12: Fab derived from P1AE2165 (Fab, V domains shown)
VH: B8 VH with A57G
VL: B8 VL with E1Q, I2T, S45L, W46L
notes: Fab; also called P1AE4136
- Kd [5]: 1.25 nM

B13: Fab derived from P1AE2176 (Fab, V domains shown)
VH: B8 VH with L48V, A57G, K76N, T95V
VL: B8 VL with Q41S, A42S, R44K
notes: Fab; also called P1AE4139
- Kd [5]: 7.58 nM

B14: Fab derived from P1AE2177 (Fab, V domains shown)
VH: B8 VH with L48V, A57G, K76N, T95V
VL: B8 VL
notes: Fab; also called P1AE4140
- Kd [5]: 7.62 nM

B15: Fab derived from P1AE2182 (Fab, V domains shown)
VH: B8 VH with L48V, A57G, T95V, T99A
VL: B8 VL
notes: Fab; also called P1AE4143
- Kd [5]: 2.92 nM

B16: Fab derived from P1AE2164 (Fab, V domains shown)
VH: B8 VH with A57G
VL: B8 VL with E1Q, I2T, Q41S, A42S, R44K, F70Y
notes: Fab; also called P1AE4135
- Kd [5]: 1.7 nM

B17: Fab derived from P1AE2179 (Fab, V domains shown)
VH: B8 VH with L48V, A57G, T95V, T99A
VL: B8 VL with E1Q, I2T, Q41S, A42S, R44K, F70Y
notes: Fab; also called P1AE4141
- Kd [5]: 1.83 nM

B18: CEA (A5B7) Fab (parental murine antibody) (Fab, V domains shown)
VH: EVKLVESGGGLVQPGGSLRLSCATSGFTFTDYYMNWVRQPPGKALEWLGFIGNKANGYTTEYSASVKGRFTISRDKSQSILYLQMNTLRAEDSATYYCTRDRGLRFYFDYWGQGTTLTVSS
VL: QTVLSQSPAILSASPGEKVTMTCRASSSVTYIHWYQQKPGSSPKSWIYATSNLASGVPARFSGSGSGTSYSLTISRVEAEDAATYYCQHWSSKPPTFGGGTKLEIK
notes: Fab; also called P1AE0289
- Kd [5]: 0.559 nM

B19: CD28(SA)_variant_12 (antibody, human IgG1, kappa, L234A L235A)
heavy: not shown
light: DIQMTQSPSSLSASVGDRVTITCRASQNIYVWLNWYQQKPGKAPKLLIYKASNLYSGVPSRFSGSRSGTDFTLTISSLQPEDFATYYCQQGQTYPYTFGQGTKLEIKRTVAAPSVFIFPPSDRKLKSGTASVVCLLNNFYPREAKVQWKVDNALQSGNSQESVTEQDSKDSTYSLSSTLTLSKADYEKHKVYACEVTHQGLSSPVTKSFNRGEC
chain: DKTHTCPPCPAPEAAGGPSVFLFPPKPKDTLMISRTPEVTCVVVDVSHEDPEVKFNWYVDGVEVHNAKTKPREEQYNSTYRVVSVLTVLHQDWLNGKEYKCKVSNKALGAPIEKTISKAKGQPREPQVCTLPPSRDELTKNQVSLSCAVKGFYPSDIAVEWESNGQPENNYKTTPPVLDSDGSFFLVSKLTVDKSRWQQGNVFSCSVMHEALHNRFTQKSLSLSP
notes: monovalent one-armed huIgG1 PG-LALA; from supernatant; also called P1AE3068
- binding result [6]: binds

B20: CD28(SA)_variant_17 (antibody, human IgG1, kappa, L234A L235A)
heavy: not shown
light: not shown
chain: B19 chain
notes: monovalent one-armed huIgG1 PG-LALA; from supernatant; also called P1AE3073
- binding result [6]: binds

B21: CD28(SA)_variant_15 (antibody, human IgG1, kappa, L234A L235A)
heavy: not shown
light: not shown
chain: B19 chain
notes: monovalent one-armed huIgG1 PG-LALA; from supernatant; also called P1AE3071
- binding result [6]: binds

B22: CD28(SA)_variant_16 (antibody, human IgG1, kappa, L234A L235A)
heavy: not shown
light: not shown
chain: B19 chain
notes: monovalent one-armed huIgG1 PG-LALA; from supernatant; also called P1AE3072
- binding result [6]: binds

B23: CD28(SA)_variant_13 (antibody, human IgG1, kappa, L234A L235A)
heavy: not shown
light: not shown
chain: B19 chain
notes: monovalent one-armed huIgG1 PG-LALA; from supernatant; also called P1AE3069
- binding result [6]: binds

B24: CD28(SA)_variant_19 (antibody, human IgG1, kappa, L234A L235A)
heavy: not shown
light: not shown
chain: B19 chain
notes: monovalent one-armed huIgG1 PG-LALA; from supernatant; also called P1AE3075
- binding result [6]: binds
